Data from patent US20230272088A1 (SYNTHEKINE, published 2023).

Experiments:
[1] = target: T1, extracellular domain of mIFNGR1 (mouse, UniProt P15261 26-254, conjugated to Alexa647 (site not stated)); experiment: flow cytometry
T1 construct: Origin and tags of the murine antigen are not described; UniProt P15261 residues 26-254; also called mIFNGR1-ECD; murine IFNGR1 ECD
T1 sequence: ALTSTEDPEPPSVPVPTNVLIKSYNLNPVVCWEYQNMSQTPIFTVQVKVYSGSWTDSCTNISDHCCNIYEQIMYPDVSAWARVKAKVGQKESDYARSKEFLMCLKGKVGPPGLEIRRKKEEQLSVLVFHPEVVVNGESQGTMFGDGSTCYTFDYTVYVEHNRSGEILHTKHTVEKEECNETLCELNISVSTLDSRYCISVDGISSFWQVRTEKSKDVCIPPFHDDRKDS

[2] = target: T2, extracellular domain of hIFNGR1 (human, UniProt P15260 18-245, conjugated to Alexa647 (site not stated)); experiment: flow cytometry
T2 construct: UniProt P15260 residues 18-245; also called hIFNGR1-ECD; human IFNGR1 ECD
T2 sequence: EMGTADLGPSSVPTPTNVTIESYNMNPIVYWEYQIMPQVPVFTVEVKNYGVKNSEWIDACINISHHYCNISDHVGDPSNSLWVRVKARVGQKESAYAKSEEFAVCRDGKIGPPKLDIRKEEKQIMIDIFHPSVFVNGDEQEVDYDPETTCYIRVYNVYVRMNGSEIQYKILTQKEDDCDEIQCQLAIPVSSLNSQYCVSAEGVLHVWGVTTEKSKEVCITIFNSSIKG

binding result [1]: binds | binding result [2]: binds
B1: DR908 (VHH)
VHH: EVQLVESGGGLVQAGGSLRVTCAASGRTFTSLAMGWFRQAPGKEREFVAAISRSGGSTDYADSVKGRFFISRDNAKSTLYLQMSSLKPEDTAVYYCAARDYSTLQYYNEYEYSDWGQGTQVTVSS
notes: also called anti-IFNGR1 sdAb VHH DR908
